What was measured:
ECD = assay: ELISA on HER2 ECD, absorbance; antibody concentration not given
HER2-ECD-His protein = target: T1, HER2-ECD-His protein (human, UniProt P04626 23-652); assay: SPR (Biacore 3000), antibody captured by anti-human IgG, HER2-ECD-His analyte, 1:1 model
T1 construct: extracellular domain; not shown: His tag
Method: All the experiments were performed using Biacore 3000. First, the goat antibodies to human IgG were immobilized at a concentration of 1000 RU to a CM5 sensor chip via an amine coupling method. […] Before binding to HER2-ECD-His protein, each antibody was bound at a rate of 50 μL/min for 180 seconds, and allowed the buffer to flow thereonto for stabilization purpose. […] The sensor chip was recycled by allowing 10 mM Glycine-HCl (pH 1.5) buffer to flow thereonto. All the sensorgram data was analyzed via a 1:1 interaction model using BIAevaluation software.

Domain2 = target: T2, Domain2 (human, UniProt P04626); assay: ELISA on HER2 sub-domain Fc fusions, absorbance; antibody concentration not given
T2 construct: single sub-domain of the extracellular domain; produced in animal cells, purified with Protein-A; also called HER2 sub-domain 2 with hinge region and Fc region of human IgG1

Domain1 = target: T3, Domain1 (human, UniProt P04626); assay: as above
T3 construct: single sub-domain of the extracellular domain; produced in animal cells, purified with Protein-A; also called HER2 sub-domain 1 with hinge region and Fc region of human IgG1

Domain3 = target: T4, Domain3 (human, UniProt P04626); assay: as above
T4 construct: single sub-domain of the extracellular domain; produced in animal cells, purified with Protein-A; also called HER2 sub-domain 3 with hinge region and Fc region of human IgG1

[1] = target: T5, HER4 extracellular domain (R&D Systems, #1131-ER-050) (human, UniProt Q15303 26-651); assay: ELISA on extracellular domains of ErbB family proteins, absorbance; antibody concentration not given
T5 construct: extracellular domain; Purchased
T5 sequence (looked up): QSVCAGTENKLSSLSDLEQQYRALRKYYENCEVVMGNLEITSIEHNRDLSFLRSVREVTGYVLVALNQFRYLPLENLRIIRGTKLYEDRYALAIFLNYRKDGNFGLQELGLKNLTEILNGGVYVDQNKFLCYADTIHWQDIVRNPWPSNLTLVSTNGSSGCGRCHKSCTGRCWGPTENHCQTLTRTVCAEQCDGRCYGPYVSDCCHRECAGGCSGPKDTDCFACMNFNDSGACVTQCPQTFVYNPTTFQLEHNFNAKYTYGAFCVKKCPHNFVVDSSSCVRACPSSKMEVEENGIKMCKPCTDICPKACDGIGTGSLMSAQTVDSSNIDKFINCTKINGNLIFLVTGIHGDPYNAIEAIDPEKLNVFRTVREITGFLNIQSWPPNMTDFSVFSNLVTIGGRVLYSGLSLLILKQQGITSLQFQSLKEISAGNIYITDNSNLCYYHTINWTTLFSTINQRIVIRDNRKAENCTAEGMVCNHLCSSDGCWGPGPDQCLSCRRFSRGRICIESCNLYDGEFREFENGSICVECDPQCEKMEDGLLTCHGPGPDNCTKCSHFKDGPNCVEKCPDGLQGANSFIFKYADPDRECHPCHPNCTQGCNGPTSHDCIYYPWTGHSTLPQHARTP

[2] = target: T6, HER3 extracellular domain (R&D Systems, #348-RB-050) (human, UniProt P21860 20-643); assay: as above
T6 construct: extracellular domain; Purchased

EGFR-ECD-Fc = target: T7, EGFR-ECD-Fc (human, UniProt P00533 25-645); assay: as above
T7 construct: extracellular domain; Produced in the same manner as HER2-ECD-Fc; not shown: hinge region of human IgG1 and Fc portion (CH2-CH3), as in HER2-ECD-Fc

[3] = target: T8, HER2 extracellular domain of a rhesus monkey (Sino Biological Inc., #90020-K08H) (rhesus monkey, UniProt I0FM22 23-652); assay: ELISA on HER2 extracellular domains of five species, absorbance; antibody concentration not given
T8 construct: extracellular domain; Purchased; also called rhesus monkey HER2

Mouse = target: T9, Mouse (mouse, UniProt P70424); assay: as above
T9 construct: extracellular domain; also called HER2 extracellular domain of a mouse (Sino Biological Inc., #50714-M08H); mouse HER2
T9 sequence (P70424 23-653): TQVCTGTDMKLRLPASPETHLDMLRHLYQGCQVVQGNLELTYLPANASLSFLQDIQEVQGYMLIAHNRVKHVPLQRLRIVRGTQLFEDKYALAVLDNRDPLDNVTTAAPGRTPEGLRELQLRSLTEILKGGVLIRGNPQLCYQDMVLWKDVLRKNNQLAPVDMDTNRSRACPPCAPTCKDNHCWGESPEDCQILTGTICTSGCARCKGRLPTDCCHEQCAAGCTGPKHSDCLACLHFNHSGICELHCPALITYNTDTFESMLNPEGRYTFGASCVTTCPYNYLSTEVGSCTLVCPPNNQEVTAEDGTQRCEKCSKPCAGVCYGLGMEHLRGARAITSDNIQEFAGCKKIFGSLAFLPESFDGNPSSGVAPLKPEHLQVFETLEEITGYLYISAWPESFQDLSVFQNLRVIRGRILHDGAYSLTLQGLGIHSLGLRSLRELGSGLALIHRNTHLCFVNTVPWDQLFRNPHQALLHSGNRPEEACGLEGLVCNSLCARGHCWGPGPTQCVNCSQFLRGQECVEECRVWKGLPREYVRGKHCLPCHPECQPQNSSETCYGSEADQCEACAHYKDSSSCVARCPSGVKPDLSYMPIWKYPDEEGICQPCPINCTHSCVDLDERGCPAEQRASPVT

Rat = target: T10, Rat (rat, UniProt P06494); assay: as above
T10 construct: extracellular domain; also called HER2 extracellular domain of a rat (Sino Biological Inc., #80079-R08H); rat HER2
T10 sequence (P06494 23-654): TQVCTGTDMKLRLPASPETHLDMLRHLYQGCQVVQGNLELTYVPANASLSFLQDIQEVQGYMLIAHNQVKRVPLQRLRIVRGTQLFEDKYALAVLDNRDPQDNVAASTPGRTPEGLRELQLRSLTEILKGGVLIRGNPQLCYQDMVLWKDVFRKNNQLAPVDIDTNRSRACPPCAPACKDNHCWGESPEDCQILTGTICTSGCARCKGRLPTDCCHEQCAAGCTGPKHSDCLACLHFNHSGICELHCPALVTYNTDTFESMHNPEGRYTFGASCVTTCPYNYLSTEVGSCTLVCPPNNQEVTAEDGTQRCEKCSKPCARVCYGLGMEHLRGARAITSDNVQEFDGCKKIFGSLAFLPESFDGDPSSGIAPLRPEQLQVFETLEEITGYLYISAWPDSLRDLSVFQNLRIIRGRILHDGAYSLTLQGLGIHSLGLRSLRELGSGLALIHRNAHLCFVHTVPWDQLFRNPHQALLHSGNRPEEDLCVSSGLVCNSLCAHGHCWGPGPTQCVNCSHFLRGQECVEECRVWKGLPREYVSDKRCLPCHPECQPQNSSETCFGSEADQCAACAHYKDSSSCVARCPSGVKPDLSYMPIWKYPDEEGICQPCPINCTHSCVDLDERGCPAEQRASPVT

- binding result (ECD): binds
- Kd (HER2-ECD-His protein): 16 nM
- koff (HER2-ECD-His protein): 0.00047 s⁻¹
- kon (HER2-ECD-His protein): 30000 M⁻¹ s⁻¹
- binding result (Domain2): no binding
- binding result (Domain1): no binding
- binding result (Domain3): no binding
- binding result [1]: no binding
- binding result [2]: no binding
- binding result (EGFR-ECD-Fc): no binding
- binding result [3]: binds
- binding result (Mouse): no binding
- binding result (Rat): no binding
B1: 1E11 antibody (antibody, V domains shown)
VH: EVKLVESGGGLVQPGGSLKLSCAASGFTFSSYTMSWVRQTPEKRLEWVAYISNGGGSTYYPDTVKGRFTISRDNAKNTLYLQMSSLKSEDTAMYYCARHLGGTASFDYWGQGTTVTVSS
VL: DIQMTQSPASQSASLGESVTITCLASQTIGTWLAWYQQKPGKSPQLLIYVATSLADGVPSRFSGSGSGTKFSFKISSLQAEDFVSYYCQQLYSTPWTFGGGTKLELK
notes: Mouse variable regions; also called 1E11 clones; chimeric 1E11

Source: patent US20160053011A1 (ABCLON, published 2016)
